From patent US11278600B2, “Human alpha-galactosidase variants” (Codexis, Inc., priority 2014, dated 2022)

Legend:
Type in all cases: biochemical
[1] = HTP-analysis of supernatants pretreated with acid (MUGal hydrolysis); settings: challenge at pH 4.0; activity of the variant/activity of Rd3BB (SEQ ID NO: 13); yeast culture supernatant
Outline: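 GLA variants were secreted from INVSc1 yeast grown 66-84 h at 30° C. in SD-Ura with 2% glucose; supernatants were mixed with McIlvaine buffer pH 3.3-4.3 and held at 37° C. for 1-3 h. Residual activity on MUGal at pH 4.8 was then measured by fluorescence.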

[2] = HTP-analysis of supernatants pretreated with base (MUGal hydrolysis); settings: challenge at pH 8.2; activity of the variant/activity of Rd3BB (SEQ ID NO: 13); yeast culture supernatant
Outline: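 Supernatants from INVSc1 yeast expressing GLA variants (SD-Ura, 66-84 h, 30° C) were mixed with McIlvaine buffer pH 7.0-8.2 or 200 mM sodium bicarbonate pH 9.1-9.7 and held 1-18 h at 37° C. Residual activity was then measured on MUGal at pH 4.8/4.3, 37° C, 30-180 min, by fluorescence (Ex 355/Em 448 nm).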

[3] = HTP-analysis of yeast culture supernatants, no challenge (MUGal hydrolysis); settings: activity of the variant/activity of Rd3BB (SEQ ID NO: 13), yeast culture supernatant
Outline: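 GLA variants were expressed in INVSc1 yeast grown in SD-Ura broth with glucose at 30° C., and culture supernatants were collected after 66-84 h. Supernatant was mixed with McIlvaine buffer pH 4.8 and MUGal (2 mM stock) in 50 mM citrate, 200 mM KCl, pH 4.6, incubated at 37° C. for 30-180 minutes, then quenched with sodium carbonate.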

[4] = HTP-analysis of supernatants pretreated with bovine serum (MUGal hydrolysis); settings: activity of the variant/activity of Rd3BB (SEQ ID NO: 13), yeast culture supernatant
Outline: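 Yeast INVSc1 culture supernatants containing secreted GLA variants were mixed with bovine serum (20:80) and held 1 h at 37° C. Serum-treated samples then reacted with MUGal (4 mM stock) in citrate/McIlvaine buffer (pH 4.3/4.8) for 180 min at 37° C., were quenched with sodium carbonate, and read by fluorescence (Ex 355, Em 448 nm).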

B1: 315 (protein)
chain: LDNGLARTPTMGWLHWERFMCNLDCQEEPDSCISEKLFMEMAELMVSEGWKDAGYEYLCIDDCWMAPQRDSEGRLQADPQRFPHGIRQLANYVHSKGLKFGIYADVGNKTCAGFPGSFGYYDIDAQTFADWGVDLLKFDGCYCDSLENLADGYKHMSLALNRTGRSIVYSCEWPLYMWPFQKPNYTEIRQYCNHWRNFADIDDSWASVKSILDWTSFNQERIVDVAGPGGWNDPDMLVIGNFGLSWNQQVTQMALWAIMAAPLFMSNDLRHISPQAKALLQDKDVIAINQDPLGKQGYQLRKGDNFEVWERPLSGLAWAVAVINRQEIGGPRSYTIAVASLGKGVACNPACFITQLLPVKRKLGLYNWTSRLKSHVNPTGTVLLQLENTMQMSLKDLL
modifications: Synthetic Polypeptide sequence of Variant No. 315 of mature Human GLA
For B1, which “Relative Activity of GLA Variants After Challenge at pH 4.0” value (shortened to “Relative Activity … at pH 4.0”) [1] is on record?
The value was “+ (+ = 0.5 to 1.5 relative activity over Rd3BB (SEQ ID NO: 13))”.

What about the “Relative Activity of GLA Variants After Challenge at pH 8.2” value (shortened to “Relative Activity … at pH 8.2”) [2] of the same molecule?
The value was “+ (+ = 0.5 to 1.5 relative activity over Rd3BB (SEQ ID NO: 13))”.

And the “Relative Activity of GLA Variants After No Challenge (NC)” value [3]?
Its value is “+ (+ = 0.5 to 1.5 relative activity over Rd3BB (SEQ ID NO: 13))”.

And the “Relative Activity of GLA Variants After Challenge with Serum” value (shortened to “Relative Activity … with Serum”) [4]?
Its value is “+ (+ = 0.5 to 1.5 relative activity over Rd3BB (SEQ ID NO: 13))”.

B2: 317 (protein)
chain: LDNGLARTPTMGWLHWERFMCNLDCQEEPDSCISEKLFMEMAELMVSEGWKDAGYEYLCIDDCWMAPQRDSEGRLQADPQRFPHGIRQLANYVHSKGLKFGIYADVGNKTCAGFPGSFGYYDIDAQTFADWGVDLLKFDGCYCDSLENLADGYKHMSLALNRTGRSIVYSCEWPLYMWPFQKPNYTEIRQYCNHWRNFADIDDSWASVKSILDWTSFNQEKIVDVAGPGGWNDPDMLVIGNFGLSWNQQVTQMALWAIMAAPLFMSNDLRHISPQAKALLQDKDVIAINQDPLGKQGYQLRQGDNFEVWERPLSGLAWAVAVINRQEIGGPRSYTIAVASLGDGVACNPACFITQLLPVKRKLGLYNWTSRLKSHINPTGTVLLQLENTMQMSLKDLL
modifications: Synthetic Polypeptide sequence of Variant No. 317 of mature Human GLA
Which “Relative Activity … at pH 4.0” value [1] does the source give for B2 here?
The value was “+ (+ = 0.5 to 1.5 relative activity over Rd3BB (SEQ ID NO: 13))”.

And the “Relative Activity … at pH 8.2” value [2]?
The value was “− (− = <0.5 relative activity to Rd3BB (SEQ ID NO: 13))”.

And the “Relative Activity of GLA Variants After No Challenge (NC)” value [3]?
The value was “+ (+ = 0.5 to 1.5 relative activity over Rd3BB (SEQ ID NO: 13))”.

What about the “Relative Activity … with Serum” value [4] of the same molecule?
The value was “− (− = <0.5 relative activity to Rd3BB (SEQ ID NO: 13))”.

B3: 316 (protein)
chain: LDNGLARTPTMGWLHWERFMCNLDCQEEPDSCISEKLFMEMAELMVSEGWKDAGYEYLCIDDCWMAPQRDSEGRLQADPQRFPHGIRQLANYVHSKGLKFGIYADVGNKTCAGFPGSFGYYDIDAQTFADWGVDLLKFDGCYCDSLENLADGYKHMSLALNRTGRSIVYSCEWPLYMWPFQKPNYTEIRQYCNHWRNFADIDDSWASVKSILDWTSFNQEKIVDVAGPGGWNDPDMLVIGNFGLSWNQQVTQMALWAIMAAPLFMSNDLRHISPQAKALLQDKDVIAINQDPLGKQGYQLRQGDNFEVWERPLSGLAWAVAVINRQEIGGPRSYTIAVASLGDGVACNPACFITQLLPVKRKLGFYNWTSRLKSHINPTGTVLLQLENTMQMSLKDLL
modifications: Synthetic Polypeptide sequence of Variant No. 316 of mature Human GLA
Which “Relative Activity … at pH 4.0” value [1] does the source give for B3 here?
Its value is “+ (+ = 0.5 to 1.5 relative activity over Rd3BB (SEQ ID NO: 13))”.

What about the “Relative Activity … at pH 8.2” value [2] of the same molecule?
The value was “+ (+ = 0.5 to 1.5 relative activity over Rd3BB (SEQ ID NO: 13))”.

And the “Relative Activity of GLA Variants After No Challenge (NC)” value [3]?
The value was “+ (+ = 0.5 to 1.5 relative activity over Rd3BB (SEQ ID NO: 13))”.

What about the “Relative Activity … with Serum” value [4] of the same molecule?
The value was “+ (+ = 0.5 to 1.5 relative activity over Rd3BB (SEQ ID NO: 13))”.
